Laboratory results as given in patent US20120321619A1 (Bayer, published 2012).
Substitutions are numbered along the chain they refer to.

T1: recombinant soluble human C4.4a (human, UniProt O95274 31-308)
T1 construct: recombinant, soluble, purified protein; also called hC4.4a; full length C4.4a
T1 sequence: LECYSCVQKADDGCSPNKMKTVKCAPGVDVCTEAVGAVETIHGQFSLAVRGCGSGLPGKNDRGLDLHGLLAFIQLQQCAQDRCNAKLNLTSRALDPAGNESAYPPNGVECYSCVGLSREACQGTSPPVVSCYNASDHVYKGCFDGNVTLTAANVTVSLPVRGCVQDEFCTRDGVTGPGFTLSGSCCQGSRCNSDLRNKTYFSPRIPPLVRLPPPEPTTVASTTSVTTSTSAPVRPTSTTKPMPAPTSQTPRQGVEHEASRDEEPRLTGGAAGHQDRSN

T2: recombinant soluble murine C4.4a (mouse, UniProt Q91YK8 33-343, limits assumed)
T2 construct: also called mouse C4.4a; mC4.4a
T2 sequence (looked up): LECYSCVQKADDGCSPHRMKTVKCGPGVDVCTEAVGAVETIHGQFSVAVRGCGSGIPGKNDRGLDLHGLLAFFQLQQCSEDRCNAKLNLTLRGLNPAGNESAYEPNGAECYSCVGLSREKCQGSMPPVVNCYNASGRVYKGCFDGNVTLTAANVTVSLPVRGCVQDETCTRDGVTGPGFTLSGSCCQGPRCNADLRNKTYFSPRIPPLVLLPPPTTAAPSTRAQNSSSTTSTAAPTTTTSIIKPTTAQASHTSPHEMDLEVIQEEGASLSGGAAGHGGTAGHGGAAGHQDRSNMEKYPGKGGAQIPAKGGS

B1: wild-type Fab M20-D02 S-A (Fab, V domains shown)
VH: EVQLLESGGGLVQPGGSLRLSCAASGFTFSDYQMTWIRQTPGKGLEWVSGVSWNGARTHYADSVKGRFTISRDNSKNTLYLQMNSLRAEDTAVYYCAKGDYLVYSAYYFDSWGQGTLVTVTS
VL: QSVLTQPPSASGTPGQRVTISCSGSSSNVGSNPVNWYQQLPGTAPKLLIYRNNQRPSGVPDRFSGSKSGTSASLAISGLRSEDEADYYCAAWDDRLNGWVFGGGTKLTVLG
notes: Fab with 3×HA-tag and hexa-histidine tag at the C-terminus of the heavy chain, E. coli culture supernatant; also called M20-D02 S-A (parental Fab)
B2: M20-D02 S-A Fab LC A90Q (Fab, V domains shown)
VH: B1 VH
VL: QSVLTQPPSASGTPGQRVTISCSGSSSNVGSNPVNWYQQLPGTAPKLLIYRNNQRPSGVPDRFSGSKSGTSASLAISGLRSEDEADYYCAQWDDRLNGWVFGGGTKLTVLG
notes: Fab with 3×HA-tag and hexa-histidine tag at the C-terminus of the heavy chain, culture supernatant
B3: M20-D02 S-A Fab HC D101R (Fab, V domains shown)
VH: B1 VH with D110R
VL: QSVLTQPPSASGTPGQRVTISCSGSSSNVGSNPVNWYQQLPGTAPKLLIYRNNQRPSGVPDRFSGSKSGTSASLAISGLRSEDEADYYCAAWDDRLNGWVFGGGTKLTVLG
notes: as for B2
B4: M20-D02 S-A Fab LC A90R (Fab, V domains shown)
VH: B1 VH
VL: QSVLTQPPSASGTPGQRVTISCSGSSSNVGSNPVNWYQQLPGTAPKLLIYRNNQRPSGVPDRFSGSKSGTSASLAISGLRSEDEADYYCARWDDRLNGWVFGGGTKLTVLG
notes: as for B2
B5: M20-D02 S-A Fab HC A100bR (Fab, V domains shown)
VH: B1 VH with A106R
VL: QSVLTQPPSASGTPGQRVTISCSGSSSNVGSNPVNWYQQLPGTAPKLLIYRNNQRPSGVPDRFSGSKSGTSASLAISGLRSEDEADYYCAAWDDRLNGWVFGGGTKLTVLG
notes: as for B2
B6: M20-D02 S-A Fab HC R56S (Fab, V domains shown)
VH: B1 VH with R57S
VL: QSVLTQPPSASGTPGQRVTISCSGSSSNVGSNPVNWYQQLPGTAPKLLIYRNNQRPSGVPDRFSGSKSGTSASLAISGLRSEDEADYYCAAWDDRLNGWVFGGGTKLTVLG
notes: as for B2
B7: M20-D02 S-A Fab LC N95aW (Fab, V domains shown)
VH: B1 VH
VL: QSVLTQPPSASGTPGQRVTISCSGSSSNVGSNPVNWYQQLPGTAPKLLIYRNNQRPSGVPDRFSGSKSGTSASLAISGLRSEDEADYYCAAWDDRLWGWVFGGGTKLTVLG
notes: as for B2
B8: M20-D02 S-A Fab HC D101K (Fab, V domains shown)
VH: B1 VH with D110K
VL: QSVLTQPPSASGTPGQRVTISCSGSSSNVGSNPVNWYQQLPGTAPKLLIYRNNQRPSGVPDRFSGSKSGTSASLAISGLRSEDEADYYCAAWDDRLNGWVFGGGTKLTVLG
notes: as for B2
B9: M20-D02 S-A Fab HC A55G (Fab, V domains shown)
VH: B1 VH with A56G
VL: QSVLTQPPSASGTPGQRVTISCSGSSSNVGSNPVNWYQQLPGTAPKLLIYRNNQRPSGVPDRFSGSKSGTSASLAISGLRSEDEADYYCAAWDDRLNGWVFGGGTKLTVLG
notes: as for B2
B10: M20-D02 S-A Fab HC S100aK (Fab, V domains shown)
VH: B1 VH with S105K
VL: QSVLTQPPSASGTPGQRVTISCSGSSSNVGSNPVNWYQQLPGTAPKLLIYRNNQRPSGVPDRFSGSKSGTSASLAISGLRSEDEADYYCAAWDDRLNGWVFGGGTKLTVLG
notes: as for B2
B11: M20-D02 S-A Fab HC D101E (Fab, V domains shown)
VH: B1 VH with D110E
VL: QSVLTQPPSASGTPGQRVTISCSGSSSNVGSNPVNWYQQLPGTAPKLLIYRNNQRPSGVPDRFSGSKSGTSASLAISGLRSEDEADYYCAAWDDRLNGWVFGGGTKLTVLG
notes: as for B2
B12: M20-D02 S-A Fab HC A100bS (Fab, V domains shown)
VH: B1 VH with A106S
VL: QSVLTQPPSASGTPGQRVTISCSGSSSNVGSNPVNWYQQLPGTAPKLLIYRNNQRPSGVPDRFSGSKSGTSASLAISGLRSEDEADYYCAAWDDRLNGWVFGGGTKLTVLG
notes: as for B2
B13: M20-D02 S-A Fab HC S100aR (Fab, V domains shown)
VH: B1 VH with S105R
VL: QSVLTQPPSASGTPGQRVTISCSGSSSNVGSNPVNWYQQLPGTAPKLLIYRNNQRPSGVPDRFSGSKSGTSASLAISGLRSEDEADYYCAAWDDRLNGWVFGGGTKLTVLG
notes: as for B2
B14: M20-D02 S-A Fab HC V51I (Fab, V domains shown)
VH: B1 VH with V51I
VL: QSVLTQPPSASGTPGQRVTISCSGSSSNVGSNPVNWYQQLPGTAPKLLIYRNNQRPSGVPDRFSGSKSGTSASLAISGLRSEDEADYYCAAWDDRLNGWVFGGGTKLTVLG
notes: as for B2
B15: wild-type Fab M31-B01 (Fab, V domains shown)
VH: EVQLLESGGGLVQPGGSLRLSCAASGFTFSNAWMSWVRQAPGKGLEWVSYISSSGSTIYYADSVKGRFTISRDNSKNTLYLQMNSLRAEDTAVYYCAREGLWAFDYWGQGTLVTVTS
VL: QSVLTQPPSASGTPGQRVTISCTGSSSNIGAGYVVHWYQQLPGTAPKLLIYDNNKRPSGVPDRFSGSKSGTSASLAISGLRSEDEADYYCAAWDDRLNGPVFGGGTKLTVLG
notes: Fab with 3×HA-tag and hexa-histidine tag at the C-terminus of the heavy chain, E. coli culture supernatant; also called M31-B01 (parental Fab)
B16: M31-B01 Fab LC P96A (Fab, V domains shown)
VH: B15 VH
VL: B15 VL with P100A
notes: as for B2
B17: M31-B01 Fab LC N95aK (Fab, V domains shown)
VH: B15 VH
VL: B15 VL with N98K
notes: as for B2
B18: M31-B01 Fab LC W91F (Fab, V domains shown)
VH: B15 VH
VL: B15 VL with W93F
notes: as for B2
B19: M31-B01 Fab HC N31S (Fab, V domains shown)
VH: B15 VH with N31S
VL: B15 VL
notes: as for B2
B20: M31-B01 Fab LC G95bR (Fab, V domains shown)
VH: B15 VH
VL: B15 VL with G99R
notes: as for B2
B21: M31-B01 Fab LC W91Y (Fab, V domains shown)
VH: B15 VH
VL: B15 VL with W93Y
notes: as for B2
B22: M31-B01 Fab LC W91E (Fab, V domains shown)
VH: B15 VH
VL: B15 VL with W93E
notes: as for B2
B23: M31-B01 Fab HC T56S (Fab, V domains shown)
VH: B15 VH with T57S
VL: B15 VL
notes: as for B2
B24: M31-B01 Fab HC Y102K (Fab, V domains shown)
VH: B15 VH with Y106K
VL: B15 VL
notes: as for B2
B25: M31-B01 Fab LC R94M (Fab, V domains shown)
VH: B15 VH
VL: B15 VL with R96M
notes: as for B2
B26: M31-B01 Fab LC T24S (Fab, V domains shown)
VH: B15 VH
VL: B15 VL with T23S
notes: as for B2
B27: M31-B01 Fab HC Y102W (Fab, V domains shown)
VH: B15 VH with Y106W
VL: B15 VL
notes: as for B2
B28: M31-B01 Fab HC A32Y (Fab, V domains shown)
VH: B15 VH with A32Y
VL: B15 VL
notes: as for B2
B29: M31-B01 Fab LC K53Q (Fab, V domains shown)
VH: B15 VH
VL: B15 VL with K55Q
notes: as for B2
B30: M31-B01 Fab HC I57T (Fab, V domains shown)
VH: B15 VH with I58T
VL: B15 VL
notes: as for B2

target: T1, recombinant soluble human C4.4a; experiment: direct ELISA, Fab supernatant on coated human C4.4a, signal normalized to Fab quantity
Description: (§1) Cultures were diluted in 10% Smart Block in PBST and bound to the MTP plates for 1 h at 20° C. After washing with PBST, captured antibodies were incubated with a HRP-coupled anti-lambda antibody (Sigma, A5175) and detected by incubating the plate with 10 μM amplex red substrate (Invitrogen, A12222) for 30 minutes at 20° C. in the dark followed by fluorescence measurement. Determined quantification signals were checked to be in the dynamic range of an calibration series built up with concentrated parental Fab (M31-B01 or M20-D02-S-A) expression culture supernatant allowing a relative quantification of each individual Fab expression sample.
(§2) To determine the activity of the mutated Fab variants on recombinant soluble human or mouse C4.4a a direct ELISA assay format was used. Briefly, MTP plates (Nunc maxisorp black, 460518) were coated with 2 μg/ml either human or mouse C4.4a diluted in coating buffer (Candor Bioscience GmbH, 121125) and incubated for 15 h at 4° C. After washing 3 times with PBST, plates were blocked with 100% Smart Block (Candor Bioscience GmbH, 113500) for 1 h at 20° C. and the washing steps were repeated. For binding of the Fab antibody fragments 20 μl of culturing supernatants were added to the plates for 1 h at 20° C. followed by washing. In some cases the washing stringency was increased by an additional incubation step with 10% Smart Block in PBST for 90 min followed by washing 3 times with PBST (“process B” in Table 10b). Bound parental Fabs and variants were then detected by a HA-epitope tag specific antibody HRP conjugate (Bethyl, A190-108P). 10 μM amplex red substrate (Invitrogen, A12222) was added to the plates and the fluorescence signal was detected using a common fluorescence reader, e.g. Tecan Ultra. Quantity normalized affinity signals were calculated as ratios of background corrected affinity and quantification signals in the respective ELISA: (Signalaffinity−Backgroundaffinity)/(Signalquantity−Backgroundquantity). The resulting values correlate mainly with the affinity in a positive manner, whereas not normalized values correlate additionally with the concentration of the binding Fab in the sample.

normalized affinity signal (average)	normalized affinity signal (median, process A)	normalized affinity signal (median)	Binder
0.04	0.15		B1
1.41			B2
0.61			B3
0.94			B4
0.87			B5
	0.21		B6
0.11			B7
1.65			B8
	0.15		B9
0.45			B10
0.31			B11
0.34			B12
0.43			B13
	0.52		B14
1.11		1.23	B15
0.95			B16
1.11			B17
4.3			B18
		1.53	B19
2.45			B20
4.97			B21
3.17			B22
		1.58	B23
1.49			B24
1.3			B25
		0.77	B26
1.65			B27
		2.31	B28
		1.12	B29
		1.5	B30

target: T2, recombinant soluble murine C4.4a; experiment: direct ELISA, Fab supernatant on coated mouse C4.4a, signal normalized to Fab quantity
Description: as §1, §2

normalized affinity signal (average)	normalized affinity signal (median, process A)	normalized affinity signal (median)	Binder
0.01	0.04		B1
0.29			B2
0.03			B3
0.17			B4
0.01			B5
	0.06		B6
0.21			B8
	0.04		B9
0.06			B10
0.05			B11
0.02			B12
0.02			B13
	0.16		B14
0.13		0.16	B15
0.32			B16
0.12			B17
2.53			B18
		0.32	B19
1.01			B20
2.79			B21
0.4			B22
		0.74	B23
0.21			B24
0.13			B25
		0.23	B26
0.13			B27
		0.01	B28
		0.35	B29
		0.73	B30
